Test [1] addresses T1, Human TGFβ1 protein (human, UniProt P01137 279-390).
T1 construct: also called TGFβ1 protein (Sino, 10804-HNAC); Novoprotein Inc., Cat #CA59
In words: ELISA, human TGFβ1 coated at 10 ng/well, detection with HRP goat anti-human Fc, OD450-620 [left panel]. Here is the method:
(§1) The plates were then blocked by incubation with 1% BSA in PBS for one hour at 37° C. After blocking, the plates were washed three times with PBST (PBS containing 0.05% Tween 20). […] After binding, the plates were washed three times with PBST, incubated for one hour at 37° C. with peroxidase-labeled Goat anti-human Fc antibody (Jackson Immuno Research, Cat #109-035-098) diluted 1/20,000 in binding buffer, washed again, developed with TMB (ThermoFisher Cat #34028) for 15 minutes, and then stopped with 1M H₂SO₄. The absorbance at 450 nm-620 nm was determined.

The target of test [2] is T2, Human PD-1 protein (ACRObiosystems, Cat #PD1-H5221) (human, UniProt Q15116 25-167).
T2 construct: Bought soluble protein
The test is described as follows: ELISA, human PD-1 coated at 25 ng/well, detection with HRP goat anti-human F(ab')2, OD450-620 [left panel]. Here is the method:
(§2) An ELISA assay was performed for determination of the relative binding capacity of the fusion proteins to human PD-1.
as §1, with “Human PD-1 protein (ACRObiosystems, Cat #PD1-H5221) was immobilized onto 96-well plates in PBS (Hyclone, Cat #SH30256.01) by incubation overnight at 4° C., 25 ng/well. The” for “The”, “F(ab′)²” for “Fc”, “#109-035-097)” for “#109-035-098)”, “(ThermoFisher,” for “(ThermoFisher”, “Each plate well contained 50 μL of solution” for “The absorbance”, “each step.” for “450 nm-620 nm was determined.”

For test [3], the target named is T2, Human PD-1 protein (ACRObiosystems, Cat …). In words: ELISA, human PD-1 coated at 25 ng/well, detection with HRP goat anti-human F(ab')2, OD450-620 [right panel]. Here is the method:
as §2
as §1, with “Human PD-1 protein (ACRObiosystems, Cat #PD1-H5221) was immobilized onto 96-well plates in PBS (Hyclone, Cat #SH30256.01) by incubation overnight at 4° C., 25 ng/well. The” for “The”, “F(ab′)²” for “Fc”, “#109-035-097)” for “#109-035-098)”, “(ThermoFisher,” for “(ThermoFisher”, “Each plate well contained 50 μL of solution” for “The absorbance”, “each step.” for “450 nm-620 nm was determined.”

T2 sequence (Q15116 25-167 limits assumed): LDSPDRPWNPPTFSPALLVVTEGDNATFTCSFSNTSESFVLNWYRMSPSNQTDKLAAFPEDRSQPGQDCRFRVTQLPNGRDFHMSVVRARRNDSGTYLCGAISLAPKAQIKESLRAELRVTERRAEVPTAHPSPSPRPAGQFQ
T1 sequence (P01137 279-390 limits assumed): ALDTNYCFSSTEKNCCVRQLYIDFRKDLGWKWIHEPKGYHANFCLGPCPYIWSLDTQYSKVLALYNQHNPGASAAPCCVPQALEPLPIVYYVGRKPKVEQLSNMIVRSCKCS

B1: human TGFβR2-hFc (ACRObiosystems, Cat #TG2-H5252) (Fc fusion, UniProt P37173 23-159, looked up)
chain: TIPPHVQKSVNNDMIVTDNNGAVKFPQLCKFCDVRFSTCDNQKSCMSNCSITSICEKPQEVCVAVWRKNDENITLETVCHDPKLPYHDFILEDAASPKCIMKEKKKPGETFFMCSCSSDECNDNIIFSEEYNTSNPD
notes: Bought Fc fusion; also called positive control; not shown: human Fc of the bought fusion
Consider B1, for which it took 0.0652 nM to reach a half-maximal effect in test [1] (EC50).

B2: anti-PD-1 antibody 21F12-1F6 (antibody, human IgG1, kappa, L234A L235A, V domains shown)
VH: QMQLVQSGAEVKKPGASVKLSCKASGYIFQSYYIHWVRQAPGQGLEWVGVINPSGGSTTYAQKFQGRVTMTRDTSISTAYMELSRLRSDDTVVYYCARGSYSSGWDYYYYYGMDVWGKGTLVTVSS
VL: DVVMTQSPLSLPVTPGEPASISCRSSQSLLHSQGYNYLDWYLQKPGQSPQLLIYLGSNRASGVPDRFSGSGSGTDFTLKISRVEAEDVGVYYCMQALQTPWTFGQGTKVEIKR
notes: Positive control in the PD-1 ELISA; also called anti-human PD-1; antibody 21F12-1F6 in PCT/CN2019/087287
With B2, the results for the EC50 in test [2] and in test [3] were 0.0957 nM and 0.0995 nM, respectively.

The record behind these values is patent publication US20210115142A1 (NANJING LEADS BIOLABS, published 2021).
